# Assay results from PMC5342195, “Structure-based mutational analysis of ICAT residues mediating negative regulation of β-catenin co-transcriptional activity” (PLoS ONE, 2017).
# T1: ICAT D66G + F71A + E75V (GAV), Flag-tagged (human, UniProt Q9NSA3 1-81, D66G | F71A | E75V)
# T1 construct: ICAT, human cDNA of 243 bp in pFLAG-CMV2, triple mutant of the C-terminal domain; also called ICAT-GAV; source: Mel501 cells, transiently transfected, in total cell lysate
# T1 sequence (looked up): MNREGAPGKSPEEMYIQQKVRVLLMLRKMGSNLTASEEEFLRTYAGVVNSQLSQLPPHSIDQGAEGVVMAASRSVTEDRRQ
# Key:
# [1] = molecular target: T2, ICAT D66G + F71A (GA), Flag-tagged (human, UniProt Q9NSA3 1-81, D66G | F71A); test: co-IP; total cell lysates of Mel501 cells transfected with ICAT-Flag WT or mutants, anti-Flag monoclonal antibody 2 h at 4°C, Protein G agarose, washed with RIPA; blot for endogenous β-catenin; densitometry with ImageJ, control fixed to 1.0; settings: partners not purified
# T2 construct: ICAT, human cDNA of 243 bp in pFLAG-CMV2, double mutant of the C-terminal domain; also called ICAT-GA; source: Mel501 cells, transiently transfected, in total cell lysate
# [2] = molecular target: T3, ICAT F71A + E75V (AV), Flag-tagged (human, UniProt Q9NSA3 1-81, F71A | E75V); test: as above; settings: partners not purified
# T3 construct: ICAT, human cDNA of 243 bp in pFLAG-CMV2, double mutant of the C-terminal domain; also called ICAT-AV; source: Mel501 cells, transiently transfected, in total cell lysate
# [3] = molecular target: T1, ICAT D66G + F71A + E75V (GAV), …; test: as above; settings: partners not purified
# [4] = molecular target: T4, WT ICAT-GST recombinant protein (human, UniProt Q9NSA3 1-81); test: pull-down; WT ICAT-GST on glutathione-Sepharose 4B beads incubated 3 h at 4°C with total cell lysate in RIPA (500 μg of total proteins) of Lu1205 cells transfected with HA-tagged β-catenin-NLS WT or mutants; washed five times; anti-HA blot; densitometry with ImageJ; settings: one partner purified
# T4 construct: ICAT, WT human cDNA cloned in the bacterial expression vector pGEX-4T3; also called recombinant WT ICAT-GST protein
reduction of co-precipitated β-catenin against ICAT WT [1],reduction of co-precipitated β-catenin against ICAT WT [2],reduction of co-precipitated β-catenin against ICAT WT [3],fold of pulled-down protein against full-length WT β-catenin [4],Binder
> 70%,> 70%,> 70%,–,"endogenous β-catenin of Mel501 cells (natural protein, human (endogenous in Mel501), UniProt P35222 1-781, looked up, β-catenin, endogenous in the human melanoma cell line Mel501; also called CTNNB1; source: endogenous, Mel501 total cell lysate) MATQADLMELDMAMEPDRKAAVSHWQQQSYLDSGIHSGATTTAPSLSGKGNPEEEDVDTSQVLYEWEQGFSQSFTQEQVADIDGQYAMTRAQRVRAAMFPETLDEGMQIPSTQFDAAHPTNVQRLAEPSQMLKHAVVNLINYQDDAELATRAIPELTKLLNDEDQVVVNKAAVMVHQLSKKEASRHAIMRSPQMVSAIVRTMQNTNDVETARCTAGTLHNLSHHREGLLAIFKSGGIPALVKMLGSPVDSVLFYAITTLHNLLLHQEGAKMAVRLAGGLQKMVALLNKTNVKFLAITTDCLQILAYGNQESKLIILASGGPQALVNIMRTYTYEKLLWTTSRVLKVLSVCSSNKPAIVEAGGMQALGLHLTDPSQRLVQNCLWTLRNLSDAATKQEGMEGLLGTLVQLLGSDDINVVTCAAGILSNLTCNNYKNKMMVCQVGGIEALVRTVLRAGDREDITEPAICALRHLTSRHQEAEMAQNAVRLHYGLPVVVKLLHPPSHWPLIKATVGLIRNLALCPANHAPLREQGAIPRLVQLLVRAHQDTQRRTSMGGTQQQFVEGVRMEEIVEGCTGALHILARDVHNRIVIRGLNTIPLFVQLLYSPIENIQRVAAGVLCELAQDKEAAEAIEAEGATAPLTELLHSRNEGVATYAAAVLFRMSEDKPQDYKKRLSVELTSSLFRTEPMAWNETADLGLDIGAQGEPLGYRQDDPSYRSFHSGGYGQDALGMDPMMEHEMGGHHPGADYPVDGLPDLGHAQDLMDGLPPGDSNQLAWFDTDL"
–,–,–,1.5 fold,"HA-tagged β-catenin-NLS Δ665 (D665X) (domain or fragment, UniProt P35222 1-664, looked up, β-catenin of the HA-tagged CMV::β-catenin-NLS expression vector, truncated by a premature stop codon at residue 665 (D665X); lacks helix C (residues 667-683) and the C-terminal domain; If the NLS stood at the C-terminus of the parent construct, the stop codon would remove it; also called β-catenin Δ665; source: Lu1205 cells, transfected, in total cell lysate) MATQADLMELDMAMEPDRKAAVSHWQQQSYLDSGIHSGATTTAPSLSGKGNPEEEDVDTSQVLYEWEQGFSQSFTQEQVADIDGQYAMTRAQRVRAAMFPETLDEGMQIPSTQFDAAHPTNVQRLAEPSQMLKHAVVNLINYQDDAELATRAIPELTKLLNDEDQVVVNKAAVMVHQLSKKEASRHAIMRSPQMVSAIVRTMQNTNDVETARCTAGTLHNLSHHREGLLAIFKSGGIPALVKMLGSPVDSVLFYAITTLHNLLLHQEGAKMAVRLAGGLQKMVALLNKTNVKFLAITTDCLQILAYGNQESKLIILASGGPQALVNIMRTYTYEKLLWTTSRVLKVLSVCSSNKPAIVEAGGMQALGLHLTDPSQRLVQNCLWTLRNLSDAATKQEGMEGLLGTLVQLLGSDDINVVTCAAGILSNLTCNNYKNKMMVCQVGGIEALVRTVLRAGDREDITEPAICALRHLTSRHQEAEMAQNAVRLHYGLPVVVKLLHPPSHWPLIKATVGLIRNLALCPANHAPLREQGAIPRLVQLLVRAHQDTQRRTSMGGTQQQFVEGVRMEEIVEGCTGALHILARDVHNRIVIRGLNTIPLFVQLLYSPIENIQRVAAGVLCELAQDKEAAEAIEAEGATAPLTELLHSRNEGVATYAAAVLFRMSE"
